Two molecules from PMC7543661, “The crystal structure of the tetrameric human vasohibin-1–SVBP complex reveals a variable arm region within the structural core” (Acta Crystallographica. Section D, Structural Biology, 2020) can be followed below.

Sequences and labels used below:
B1: human VASH1 core (VASH1c) region (amino acids 56–310) (domain or fragment)
chain: not shown
notes: vasohibin-1 (VASH1), human, core region, amino acids 56-310; the final model holds amino acids 56-304 (chain A); cut with TEV protease before crystallisation; Residues of the TEV sites may be left at the ends; also called vasohibin-1; source: E. coli One Shot BL21 Star (DE3) pLysS, purified (HisTrap FF, SP Sepharose, TEV cleavage, SP Sepharose, Superdex 200); not shown: MBP, N-terminal, cleaved; …

Series [1] concerns the molecule itself. Briefly: crystal structure; purified VASH1c–SVBP complex (17.7 mg/ml), sitting-drop vapor diffusion at 20°C, 0.16 M ammonium sulfate, 0.08 M sodium acetate pH 4.6, 20% PEG 4000, 20% glycerol; space group P6(1)22, 2.3 Å; heterotetramer formed by a crystallographic twofold axis.
Series [2] addresses B1. The description is as above. The conditions noted are these: both partners purified.

For B1, the binding result in series [1] is listed as “binds”.

B2: human small vasohibin-binding protein (SVBP) (amino acids 2–66) (natural protein, UniProt Q8N300 2-66, looked up)
chain: DPPARKEKTKVKESVSRVEKAKQKSAQQELKQRQRAEIYALNRVMTELEQQQFDEFCKQMQPPGE
notes: the final model holds amino acids 26-53 (chain B); Expressed at the C-terminal end of the fusion MBP-His6-5xTEV-VASH1(56-310)-2xTEV-SVBP(2-66) and set free by TEV protease; Residues of the TEV site may be left at its N-terminus; source: E. coli One Shot BL21 Star (DE3) pLysS, purified (HisTrap FF, SP Sepharose, TEV cleavage, SP Sepharose, Superdex 200)
In the case of B2, in series [2], the binding result was “binds”.
